# B1: Homeobox protein Meis2 (Homo sapiens), O14770-4 (parent)
# chain: MAQRYDELPHYGGMDGVGVPASMYGDPHAPRPIPPVHHLNHGPPLHATQHYGAHAPHPNVMPASMGSAVNDALKRDKDAIYGHPLFPLLALVFEKCELATCTPREPGVAGGDVCSSDSFNEDIAVFAKQVRAEKPLFSSNPELDNLMIQAIQVLRFHLLELEKVHELCDNFCHRYISCLKGKMPIDLVIDERDGSSKSDHEELSGSSTNLADHNPSSWRDHDDATSTHSAGTPGPSSGGHASQSGDNSSEQGDGLDNSVASPGTGDDDDPDKDKKRQKKRGIFPKVATNIMRAWLFQHLTHPYPSEEQKKQLAQDTGLTILQVNNWFINARRRIVQPMIDQSNRAVSQGAAYSPEGQPMGSFVLDGQQHMGIRPAGLQSMPGDYVSQGGPMGMSMAQPSYTPPQMTPHPTQLRHGPPMHSYLPSHPHHPAMMMHGGPPTHPGMTMSAQSPTMLNSVDPNVGGQVMDIHAQ
# partner: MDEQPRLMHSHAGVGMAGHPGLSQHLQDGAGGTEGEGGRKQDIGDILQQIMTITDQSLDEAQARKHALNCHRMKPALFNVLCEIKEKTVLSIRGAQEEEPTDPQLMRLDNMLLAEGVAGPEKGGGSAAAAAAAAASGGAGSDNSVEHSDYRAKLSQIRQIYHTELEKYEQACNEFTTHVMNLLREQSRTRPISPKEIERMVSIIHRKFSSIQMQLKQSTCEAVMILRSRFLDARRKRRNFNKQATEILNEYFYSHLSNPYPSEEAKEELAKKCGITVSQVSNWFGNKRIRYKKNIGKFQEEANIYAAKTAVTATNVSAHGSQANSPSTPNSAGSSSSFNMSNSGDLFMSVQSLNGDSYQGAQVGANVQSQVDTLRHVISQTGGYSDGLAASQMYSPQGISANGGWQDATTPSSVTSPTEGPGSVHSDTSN
# Variants of: B1
# Details: with pbx1_human PBX1, P40424
row,Variant,effect of a mutation on the interaction
1,L159A,decreasing interaction
2,L158A,decreasing interaction
3,L161A,decreasing interaction

# Variants of: B1
# Details: with pbx1_human PBX1, P40424
# Remark: another data set of the same source
row,Variant,effect of a mutation on the interaction
1,L88A,decreasing interaction
2,L85A,decreasing interaction

# Variants of: B1
# Details: with pbx1_human PBX1, P40424
# Remark: another data set of the same source
row,Variant,effect of a mutation on the interaction
1,E162A,decreasing interaction
2,E160A,decreasing interaction
3,K163A,decreasing interaction

# Variants of: B1
# Details: with pbx1_human PBX1, P40424
# Remark: another data set of the same source
row,Variant,effect of a mutation on the interaction
1,E94N,decreasing interaction
2,K95N,decreasing interaction
3,E97T,decreasing interaction
4,C96G,decreasing interaction

# Variants of: B1
# Details: with pbx1_human PBX1, P40424
# Remark: another data set of the same source
row,Variant,effect of a mutation on the interaction
1,L154A,decreasing interaction
2,I151A,decreasing interaction

# — IntAct's records for PubMed 20553494
